The record followed here is article PMC11659164, “Inceptor binds to and directs insulin towards lysosomal degradation in β cells” (Nature Metabolism, 2024).

For data set [1], the target named is His-tagged inceptor ectodomain (human) (UniProt Q6UXG2). In words: native MS; charge detection mass spectrometry (CDMS), Orbitrap Q Exactive UHMR; inceptor ECD-His (5 µM) alone or with insulin at 1:6 and 1:20, or with proinsulin; 150 mM ammonium acetate, pH 3–7; 37 °C for 30 min.
Data set [2] deals with inceptor–HaloTag fusion protein (FRET experiments, INS-1E cells) (human) (UniProt Q6UXG2). In words: FRET or BRET; live INS-1E cells overexpressing inceptor–HaloTag labelled with TMR; 100 nmol/l INS-630 and 0, 10, 100 and 1,000 nmol/l proinsulin in the medium for 40 min; corrected FRET efficiency by confocal imaging. In general terms: Bioluminescence resonance energy transfer reports proximity on the nanometre scale.

Data set [3] concerns the molecule itself. Briefly: native MS; charge detection mass spectrometry (CDMS), Orbitrap Q Exactive UHMR; inceptor ECD-His (5 µM) alone or with insulin at 1:6 and 1:20, or with proinsulin; 150 mM ammonium acetate, pH 3–7; 37 °C for 30 min.

As a reminder, the stoichiometry N is a count of units in the complex or per binding partner. On to bovine proinsulin (ligand), for which, in data set [1], the N for each inceptor dimer came out at 1 and the stoichiometry N worked out at 1.
Take “proinsulin (unlabelled, added to the medium in the FRET experiments) (ligand)”: in data set [2], the reduction of the FRET signal of inceptor to INS-630 at a 1:10 molar ratio of proinsulin to insulin is 50%.

B1: His-tagged inceptor ectodomain (domain or fragment, human, UniProt Q6UXG2 42-910, looked up)
chain: TGPELHACKESEYHYEYTACDSTGSRWRVAVPHTPGLCTSLPDPIKGTECSFSCNAGEFLDMKDQSCKPCAEGRYSLGTGIRFDEWDELPHGFASLSANMELDDSAAESTGNCTSSKWVPRGDYIASNTDECTATLMYAVNLKQSGTVNFEYYYPDSSIIFEFFVQNDQCQPNADDSRWMKTTEKGWEFHSVELNRGNNVLYWRTTAFSVWTKVPKPVLVRNIAITGVAYTSECFPCKPGTYADKQGSSFCKLCPANSYSNKGETSCHQCDPDKYSEKGSSSCNVRPACTDKDYFYTHTACDANGETQLMYKWAKPKICSEDLEGAVKLPASGVKTHCPPCNPGFFKTNNSTCQPCPYGSYSNGSDCTRCPAGTEPAVGFEYKWWNTLPTNMETTVLSGINFEYKGMTGWEVAGDHIYTAAGASDNDFMILTLVVPGFRPPQSVMADTENKEVARITFVFETLCSVNCELYFMVGVNSRTNTPVETWKGSKGKQSYTYIIEENTTTSFTWAFQRTTFHEASRKYTNDVAKIYSINVTNVMNGVASYCRPCALEASDVGSSCTSCPAGYYIDRDSGTCHSCPTNTILKAHQPYGVQACVPCGPGTKNNKIHSLCYNDCTFSRNTPTRTFNYNFSALANTVTLAGGPSFTSKGLKYFHHFTLSLCGNQGRKMSVCTDNVTDLRIPEGESGFSKSITAYVCQAVIIPPEVTGYKAGVSSQPVSLADRLIGVTTDMTLDGITSPAELFHLESLGIPDVIFFYRSNDVTQSCSSGRSTTIRVRCSPQKTVPGSLLLPGTCSDGTCDGCNFHFLWESAAACPLCSVADYHAIVSSCVAGIQKTTYVWREPKLCSGGISLPEQRVTICKTIDFWLK
notes: signal peptide in the construct; ectodomain of human inceptor (KIAA1324), Uniprot entry Q6UXG2, residues 1–910; Seen as monomer and, prevalently, as dimer by CDMS; also called inceptor ECD-His; inceptor ECD-6×His; source: HEK293 (pCDNA3-inceptor ECD-6×His), purified
Regarding B1, the “stoichiometry N” value in data set [3] was 2.
